According to paper PMC3796514:

Experiments:
[1] = target: HapRV2G (wild type functional HapR, glycine at position 39), N-terminal 6X His fusion (Vibrio cholerae); assay: SEC
[2] = target: HapRV2G-E117K (HapR natural variant with lysine at position 117 in the dimerization domain), N-terminal 6X His fusion (Vibrio cholerae); assay: SEC

Substance	stoichiometry N [1]	stoichiometry N [2]
HapRV2G (wild type functional HapR, glycine at position 39), N-terminal 6X His fusion (natural protein)	2	–
HapRV2G-E117K (HapR natural variant with lysine at position 117 in the dimerization domain), N-terminal 6X His fusion (natural protein)	–	2
